Experimental data published in PMC5014153.

What was measured:
Experiment in all cases: EMSA
Details in all cases: 25 mM Hepes pH 8.0, 40 mM KCl, 5 mM MgCl2, 1 mM DTT, 1 mM EDTA, 8% glycerol; 50 ng protein, 20 fmol probe; 30 min at 28 C; native PAGE
[1] = molecular target: T1, 6xHis-WRKY40 (Arabidopsis thaliana (Col-0?)) (UniProt Q9SAH7)
T1 sequence: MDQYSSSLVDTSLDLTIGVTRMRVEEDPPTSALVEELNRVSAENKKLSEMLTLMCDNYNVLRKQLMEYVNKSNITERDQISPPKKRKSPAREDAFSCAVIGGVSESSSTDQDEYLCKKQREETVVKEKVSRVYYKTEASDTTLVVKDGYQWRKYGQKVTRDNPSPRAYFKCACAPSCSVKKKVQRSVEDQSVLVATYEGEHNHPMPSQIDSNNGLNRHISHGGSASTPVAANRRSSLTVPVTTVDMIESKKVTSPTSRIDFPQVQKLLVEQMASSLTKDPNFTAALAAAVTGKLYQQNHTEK

[2] = molecular target: 6xHis-WRKY18 (Arabidopsis thaliana (Col-0?)) (UniProt Q9C5T4)
[3] = molecular target: 6xHis-WRKY60 (Arabidopsis thaliana (Col-0?)) (UniProt Q9SK33)
6xHis-WRKY60 (Arabidopsis thaliana (Col-0?)), sequence (Q9SK33 whole entry): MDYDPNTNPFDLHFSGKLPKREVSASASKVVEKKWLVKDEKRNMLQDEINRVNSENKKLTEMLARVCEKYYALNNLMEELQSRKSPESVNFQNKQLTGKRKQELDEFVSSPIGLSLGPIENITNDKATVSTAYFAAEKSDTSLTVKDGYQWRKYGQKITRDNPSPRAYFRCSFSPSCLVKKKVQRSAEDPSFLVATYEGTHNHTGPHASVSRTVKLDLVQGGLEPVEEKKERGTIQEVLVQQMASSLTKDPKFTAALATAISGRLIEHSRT

6xHis-WRKY18 (Arabidopsis thaliana (Col-0?)), sequence (Q9C5T4 whole entry): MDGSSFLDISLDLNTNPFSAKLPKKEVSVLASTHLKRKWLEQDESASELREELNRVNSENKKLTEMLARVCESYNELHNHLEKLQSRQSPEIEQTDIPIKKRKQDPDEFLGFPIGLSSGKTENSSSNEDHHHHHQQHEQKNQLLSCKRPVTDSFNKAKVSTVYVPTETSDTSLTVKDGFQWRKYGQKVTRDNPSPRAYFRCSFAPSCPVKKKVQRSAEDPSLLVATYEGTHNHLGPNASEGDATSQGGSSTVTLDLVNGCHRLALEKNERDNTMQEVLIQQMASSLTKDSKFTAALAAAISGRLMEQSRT

For “AGTTGTAAAGTTCAGAAGGAAAAGTACTAAAATATGAAGTCAACGACAATCTTTAGAGTCAACCTTCCACTAAGAGTGTTGATTGGTTTGATGAAGCAGTGAAGGCTAGAAACTGAAGCAACTAGGGTTTGGGAAGTTACTGTTTTAACTTGTAACTGTTCGTTTGTTACTTCTTTGGTAAGGAAGTAAAACGGTGTTGTCTTATTGACCCAAAGTCTCCGCGGCTTGCTGAATAATCACAAACCTATTAAATATCC (double strand) [ProCRK5-2]”, the binding [1] was “binds”, the binding [2] was “binds” and the binding [3] was “no binding”.
